Test results from paper PMC4027207, “Molecular dissection of the domain architecture and catalytic activities of human PrimPol” (Nucleic Acids Research, 2014).

Target: T1, PrimPol372-560/ZF-KO (Homo sapiens, UniProt Q96LW4 372-560, C419A;H426A)
T1 sequence: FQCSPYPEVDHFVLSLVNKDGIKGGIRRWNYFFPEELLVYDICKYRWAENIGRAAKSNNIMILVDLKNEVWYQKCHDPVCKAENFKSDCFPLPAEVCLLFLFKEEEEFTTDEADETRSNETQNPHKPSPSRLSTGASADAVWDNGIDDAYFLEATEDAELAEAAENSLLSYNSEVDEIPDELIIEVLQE
Experiment: EMSA; 10 mM Mg2+; 40 nM DNA; no binding, protein 0.05-20 uM; 10 mM Bis-Tris-Propane-HCl pH 7.0, 10 mM MgCl2, 1 mM DTT, 40 nM DNA, 25°C, 60 min; 5% polyacrylamide gel in 0.5x TBE
Settings: protein: recombinant; tags: His (Ni-NTA purified); label: 5'-Hex

B1: HP-50 ssDNA (sequence 7) (ssDNA)
DNA: TGTCGTCTGTTCGGTCGTTCGGTCTTCAAGGCTGTTGTGCGCCCTGCGCG
- binding result: no binding
